According to FireProtDB (doi:10.1006/jmbi.1999.3099):

Conditions: Mus musculus, pH 7.5, Thermal, Potassium phosphate 50 mM, KCl 50 mM, reversible: yes, structure 1MBG

Sequence of Transcriptional activator Myb V103L, P06876 (P06876 whole entry V103L): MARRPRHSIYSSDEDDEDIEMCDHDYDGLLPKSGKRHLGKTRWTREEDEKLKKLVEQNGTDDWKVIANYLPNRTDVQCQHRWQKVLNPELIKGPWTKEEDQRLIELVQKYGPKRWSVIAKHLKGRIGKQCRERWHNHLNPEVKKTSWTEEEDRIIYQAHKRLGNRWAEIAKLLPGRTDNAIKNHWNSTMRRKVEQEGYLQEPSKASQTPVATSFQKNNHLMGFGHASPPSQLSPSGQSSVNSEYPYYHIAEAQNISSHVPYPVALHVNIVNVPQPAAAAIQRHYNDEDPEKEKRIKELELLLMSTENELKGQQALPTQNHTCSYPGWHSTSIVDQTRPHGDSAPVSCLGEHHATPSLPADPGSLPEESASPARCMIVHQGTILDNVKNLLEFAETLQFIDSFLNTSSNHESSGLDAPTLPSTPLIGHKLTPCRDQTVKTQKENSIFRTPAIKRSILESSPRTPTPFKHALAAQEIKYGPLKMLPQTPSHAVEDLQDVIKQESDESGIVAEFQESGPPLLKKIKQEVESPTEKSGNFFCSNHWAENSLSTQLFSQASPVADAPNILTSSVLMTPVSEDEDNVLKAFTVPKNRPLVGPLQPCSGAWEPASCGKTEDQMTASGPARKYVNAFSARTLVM
Sequence of Transcriptional activator Myb V103I, P06876 (P06876 whole entry V103I): as the sequence (P06876 whole entry V103L) above, with L103I counted along it
Sequence of Transcriptional activator Myb V103A, P06876 (P06876 whole entry V103A): as the sequence (P06876 whole entry V103L) above, with L103A counted along it

Substance | Tm (CD) | change of melting temperature, mutant - wild type (higher = more stable) (CD) | Tm (DSC) | unfolding enthalpy (calorimetric) (DSC)
Transcriptional activator Myb V103A, P06876 | 2.8 °C | -36.8 °C |  | 
Transcriptional activator Myb V103I, P06876 | 46.6 °C | 7 °C | 47.5 °C | 32.1 kcal/mol
Transcriptional activator Myb V103L, P06876 | 62 °C | 22.4 °C | 62 °C | 41.8 kcal/mol
